Results: FireProtDB (doi:10.1002/cbic.201402128)
“And” between values parts separate entries of the source, which are not always exact repeats. Identical values can stand only once.

B1: Haloalkane dehalogenase, D4Z2G1 (parent)
chain: MSLGAKPFGEKKFIEIKGRRMAYIDEGTGDPILFQHGNPTSSYLWRNIMPHCAGLGRLIACDLIGMGDSDKLDPSGPERYAYAEHRDYLDALWEALDLGDRVVLVVHDWGSALGFDWARRHRERVQGIAYMEAIAMPIEWADFPEQDRDLFQAFRSQAGEELVLQDNVFVEQVLPGLILRPLSEAEMAAYREPFLAAGEARRPTLSWPRQIPIAGTPADVVAIARDYAGWLSESPIPKLFINAEPGALTTGRMRDFCRTWPNQTEITVAGAHFIQEDSPDEIGAAIAAFVRRLRPA

Variants of: B1
Conditions: Sphingobium indicum (strain DSM 16413 / CCM 7287 / MTCC 6362 / UT26 / NBRC 101211 / UT26S); pH 7.5; Thermal; fluorescence; Na-Hepes 50 mM; reversible: no; structure 1MJ5; whole UniProt chain shown

Variant | Tm | change of melting temperature, mutant - wild type (higher = more stable)
R86L | 49 °C | -2 °C
A200P | 50.5 °C | -0.5 °C
G176N | 51 °C | 0 °C
G176A | 51.5 °C | 0.5 °C
A269P | 50 °C | -1 °C
D147L | 65 °C | 14 °C
D147H | 59.5 °C | 8.5 °C
D147Y | 65 °C | 14 °C
D147M | 66 °C | 15 °C
I48C G283C | 49 °C | -2 °C
C257A | 48.5 °C | -2.5 °C
E123S | 51 °C | 0 °C
D100T | 51 °C | 0 °C
A189F | 51.5 °C | 0.5 °C
A189Y | 51.5 °C | 0.5 °C
E244I | 50 °C | -1 °C
E244V | 50.5 °C | -0.5 °C
K6E | 51 °C | 0 °C
A133V | 51 °C | 0 °C
L248F | 61.5 °C | 10.5 °C
L248W | 62 °C | 11 °C
A218E | 51 °C | 0 °C
A218P | 51.5 °C | 0.5 °C
T264Q | 50 °C | -1 °C
T264L | 50.5 °C | -0.5 °C

Variant | Tm | change of melting temperature, mutant - wild type (higher = more stable)
L3S | 50.5 °C | -0.5 °C
A247F | 67.5 °C | 16.5 °C
Q172K | 61.5 °C | 10.5 °C
Q152L | 61.5 °C | 10.5 °C
V106L | 50.5 °C | -0.5 °C
S183C E186C | 47 °C | -4 °C
A129V | 50 °C | -1 °C
R101H | 51 °C | 0 °C
A53L | 52 °C | 1 °C
A53K | 51 °C | 0 °C
D87L | 51.5 °C | 0.5 °C
D87K | 50 °C | -1 °C
R20L | 50 °C | -1 °C
R254L | 49.5 °C | -1.5 °C
S75C R79C | 45.5 °C and 44 °C | -5.5 °C and -5 °C
D149K | 67.5 °C | 16.5 °C
D149Q | 62 °C | 11 °C
D255A | 51.5 °C | 0.5 °C
D255K | 50.5 °C | -0.5 °C
D255Q | 50.5 °C | -0.5 °C
A271V | 62 °C | 11 °C
A271I | 60.5 °C | 9.5 °C
T249L | 62.5 °C | 11.5 °C
T249V | 60 °C | 9 °C
T249M | 60.5 °C | 9.5 °C

Variant | Tm | change of melting temperature, mutant - wild type (higher = more stable)
H51C G283C | 48.5 °C and 46 °C | -2.5 °C and -3 °C
V103I | 51 °C | 0 °C
A196C A200C | 48.5 °C and 46 °C | -2.5 °C and -3 °C and -0.5 °C
S75C E199C | 48.5 °C | -2.5 °C
V220M | 61 °C | 10 °C
D166K | 53.5 °C | 2.5 °C
D166N | 53 °C | 2 °C
E139H | 61.5 °C | 10.5 °C
E139Q | 58.5 °C | 7.5 °C
E139K | 58.5 °C | 7.5 °C
E139T | 60.5 °C | 9.5 °C
S42C A60C | 47.5 °C | -1.5 °C
Q35L | 48.5 °C | -2.5 °C
Q35V | 48.5 °C | -2.5 °C
Q35I | 50.5 °C | -0.5 °C
S183D | 50 °C | -1 °C
A197P | 52.5 °C | 1.5 °C
Q275P | 48 °C | -3 °C
D97K | 50.5 °C | -0.5 °C
D97R | 51 °C | 0 °C
D97N | 50 °C | -1 °C
S2C N47C | 48 °C | -3 °C
D226K | 50.5 °C | -0.5 °C
A81E | 48 °C | -3 °C
A81K | 52 °C | 1 °C

Variant | Tm | change of melting temperature, mutant - wild type (higher = more stable)
A81P | 48 °C | -3 °C
A81N | 51 °C | 0 °C
A296R | 50.5 °C | -0.5 °C
A296H | 50 °C | -1 °C
S42A | 49.5 °C | -1.5 °C
R20C D70C | 45.5 °C | -3.5 °C
E192L | 51.5 °C | 0.5 °C
E192K | 54 °C | 3 °C
E192R | 53.5 °C | 2.5 °C
V105I | 50 °C | -1 °C
E233T | 51.5 °C | 0.5 °C
E233Q | 51.5 °C | 0.5 °C
E233H | 51.5 °C | 0.5 °C
E233S | 51.5 °C | 0.5 °C
A5L | 50 °C | -1 °C
A5E | 51.5 °C | 0.5 °C
A185P | 50.5 °C | -0.5 °C
A83N | 50 °C | -1 °C
A83L | 51.5 °C | 0.5 °C
A95H | 50.5 °C | -0.5 °C
G229S | 52 °C | 1 °C
G229D | 51.5 °C | 0.5 °C
G229E | 51.5 °C | 0.5 °C
G229Q | 54 °C | 3 °C
G229A | 51.5 °C | 0.5 °C

Variant | Tm | change of melting temperature, mutant - wild type (higher = more stable)
G229T | 51.5 °C | 0.5 °C
G229N | 51.5 °C | 0.5 °C
G229R | 51.5 °C | 0.5 °C
S41Q | 49 °C | -2 °C
V268C S278C | 48.5 °C and 46 °C | -2.5 °C and -3 °C
D68H | 52 °C | 1 °C
D68N | 50.5 °C | -0.5 °C
D68L | 49.5 °C | -1.5 °C
E78H | 51 °C | 0 °C
V106C G114C | 50 °C | 1 °C
E26V | 51 °C | 0 °C
E26H | 50 °C | -1 °C
E26R | 50 °C | -1 °C
E26Q | 51 °C | 0 °C
A5C A185C | 56 °C and 55.5 °C | 5 °C and 6.5 °C
C61P | 50.5 °C | -0.5 °C
D30H | 51 °C | 0 °C
D30V | 49 °C | -2 °C
D30A | 51 °C | 0 °C
D30E | 51 °C | 0 °C
E15T | 52 °C | 1 °C
A153K | 61 °C | 10 °C
R225L | 51.5 °C | 0.5 °C
D219Q | 50 °C | -1 °C
